Laboratory results published in patent US20080057028A1.

Columns and labels:
[1] = biological target: neuropilin-2 on mouse oligodendrocyte precursor cells (OPCs) (mouse) (UniProt O35375); assay: cell-based or functional assay
[2] = biological target: VEGFR-3 on mouse oligodendrocyte precursor cells (OPCs) (mouse) (UniProt P35917); assay: cell-based or functional assay
Sequence of UniProt P35917 (P35917 25-1363): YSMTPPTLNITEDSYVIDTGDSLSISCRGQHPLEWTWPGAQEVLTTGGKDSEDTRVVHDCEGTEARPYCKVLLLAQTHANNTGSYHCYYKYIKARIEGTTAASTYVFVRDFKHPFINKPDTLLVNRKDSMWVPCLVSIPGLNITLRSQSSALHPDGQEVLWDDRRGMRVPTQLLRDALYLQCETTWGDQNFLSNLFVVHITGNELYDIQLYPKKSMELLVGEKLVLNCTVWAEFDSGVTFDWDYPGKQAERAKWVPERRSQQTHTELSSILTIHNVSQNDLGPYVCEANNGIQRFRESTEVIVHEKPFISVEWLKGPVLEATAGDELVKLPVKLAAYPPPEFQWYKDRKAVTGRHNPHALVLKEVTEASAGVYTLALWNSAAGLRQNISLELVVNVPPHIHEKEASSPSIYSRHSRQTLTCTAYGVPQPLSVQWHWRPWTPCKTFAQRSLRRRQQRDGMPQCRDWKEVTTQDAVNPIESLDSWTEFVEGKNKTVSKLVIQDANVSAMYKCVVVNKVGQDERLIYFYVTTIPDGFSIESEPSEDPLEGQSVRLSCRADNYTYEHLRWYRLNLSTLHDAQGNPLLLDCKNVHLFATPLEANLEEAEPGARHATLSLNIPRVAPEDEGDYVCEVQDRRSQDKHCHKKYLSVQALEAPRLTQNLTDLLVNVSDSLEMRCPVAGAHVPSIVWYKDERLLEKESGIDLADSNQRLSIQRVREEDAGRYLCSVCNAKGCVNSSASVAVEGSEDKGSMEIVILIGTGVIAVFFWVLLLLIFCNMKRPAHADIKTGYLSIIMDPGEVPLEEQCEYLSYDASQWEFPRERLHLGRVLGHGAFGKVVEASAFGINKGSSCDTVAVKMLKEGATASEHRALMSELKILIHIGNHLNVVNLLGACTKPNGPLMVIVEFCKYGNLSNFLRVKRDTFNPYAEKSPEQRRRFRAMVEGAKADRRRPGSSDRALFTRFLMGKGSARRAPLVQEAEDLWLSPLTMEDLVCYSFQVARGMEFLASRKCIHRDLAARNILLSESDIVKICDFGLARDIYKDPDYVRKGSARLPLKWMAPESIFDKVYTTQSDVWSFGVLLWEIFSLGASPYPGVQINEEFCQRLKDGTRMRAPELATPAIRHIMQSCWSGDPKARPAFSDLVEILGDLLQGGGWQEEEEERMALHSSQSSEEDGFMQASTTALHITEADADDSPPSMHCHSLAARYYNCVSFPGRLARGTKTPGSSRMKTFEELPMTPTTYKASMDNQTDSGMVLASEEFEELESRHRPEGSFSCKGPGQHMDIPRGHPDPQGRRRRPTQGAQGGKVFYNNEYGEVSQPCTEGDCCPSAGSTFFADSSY

Sequence of UniProt O35375 (O35375 21-931): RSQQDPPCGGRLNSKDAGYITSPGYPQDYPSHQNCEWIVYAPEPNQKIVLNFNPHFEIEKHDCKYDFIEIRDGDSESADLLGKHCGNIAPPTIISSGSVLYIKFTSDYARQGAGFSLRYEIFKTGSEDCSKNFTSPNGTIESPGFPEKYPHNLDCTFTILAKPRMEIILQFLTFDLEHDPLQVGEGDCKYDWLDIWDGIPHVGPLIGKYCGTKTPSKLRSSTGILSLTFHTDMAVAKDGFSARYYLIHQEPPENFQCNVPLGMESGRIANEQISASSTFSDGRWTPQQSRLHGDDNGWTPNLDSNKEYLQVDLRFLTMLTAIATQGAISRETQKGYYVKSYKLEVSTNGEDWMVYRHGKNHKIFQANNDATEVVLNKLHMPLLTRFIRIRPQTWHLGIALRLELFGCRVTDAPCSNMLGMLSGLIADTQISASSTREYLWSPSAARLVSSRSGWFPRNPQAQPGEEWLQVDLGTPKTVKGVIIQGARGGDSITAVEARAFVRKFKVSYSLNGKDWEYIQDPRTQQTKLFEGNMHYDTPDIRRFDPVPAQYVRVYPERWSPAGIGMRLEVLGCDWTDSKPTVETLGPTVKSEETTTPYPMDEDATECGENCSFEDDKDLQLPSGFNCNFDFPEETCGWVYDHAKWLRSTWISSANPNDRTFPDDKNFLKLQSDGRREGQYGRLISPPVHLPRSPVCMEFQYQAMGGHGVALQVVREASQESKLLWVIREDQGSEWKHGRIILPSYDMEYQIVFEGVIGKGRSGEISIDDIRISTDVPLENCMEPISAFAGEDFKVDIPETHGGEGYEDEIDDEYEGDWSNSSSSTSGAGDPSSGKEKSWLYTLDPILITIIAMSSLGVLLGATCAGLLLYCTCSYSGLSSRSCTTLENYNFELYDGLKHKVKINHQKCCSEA

Row | BrdU incorporation of A2B5^+ OPCs [1] | proliferation of OPCs (BrdU^+/A2B5^+ cells) [2] | migration of Olig2^+ OPCs through the filter (transwell) [2] | Substance
1 | 2 fold |  |  | VEGF-C (supernatant of COS cells secreting VEGF-C) (ligand)
2 |  | 50% |  | human VEGF-C156S (R&D Systems) (from UniProt P49767 103-227) (ligand)
3 |  | 2 fold | > 2 fold | recombinant rat VEGF-C (Reliatech) (from UniProt O35757 99-223) (ligand)
